Measurements taken from paper PMC8273494.
pKd: −log10 of the molar value.

Biological target: hnRNP A1 internal_change (UniProt P09651)
Assay: SPR
Settings: hnRNP A1 immobilized; very hard to regenerate; called non-special binding; phosphorothioate at all 30 linkages (stereorandom); SPR: 10 mM PBS (138 mM NaCl, 2.7 mM KCl, 10 mM Na2HPO4, 1.76 mM KH2PO4, 0.05% Tween-20), pH 7.4, 25 C, aptamer 0.39-50 nM; BLI: biotinylated aptamer on SA …

Sequence of hnRNP A1 internal_change (P09651 other isoform, or with tags, fused parts or gaps): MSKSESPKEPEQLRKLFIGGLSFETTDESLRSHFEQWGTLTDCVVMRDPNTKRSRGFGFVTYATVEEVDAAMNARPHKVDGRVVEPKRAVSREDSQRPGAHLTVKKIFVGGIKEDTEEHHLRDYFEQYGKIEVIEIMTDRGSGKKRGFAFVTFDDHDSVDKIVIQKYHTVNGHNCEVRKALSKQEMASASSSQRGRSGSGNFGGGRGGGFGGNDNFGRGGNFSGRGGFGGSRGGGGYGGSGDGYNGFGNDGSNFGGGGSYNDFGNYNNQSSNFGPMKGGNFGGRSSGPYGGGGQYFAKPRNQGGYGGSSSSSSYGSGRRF

Sequence: TGTGGCGAGGTAGGTGGGGTGTGTGTGTATC [WW-20]
- pKd: 10.85
